Laboratory results published in patent US20230002481A1 (Chugai, published 2023).

Experiments:
[1] = biological target: T1, recombinant human C1r2s2 tetramer (human, UniProt P09871 16-688; P00736 18-705); test: SPR (Biacore), antibody captured on ProA/G, antigen as analyte, 37 C, pH5.8, 1.2 mM CaCl2; pH 5.8
T1 construct: Heterotetramer of two C1r and two C1s chains, co-expressed in FreeStyle293-F cells; also called human C1r2s2s
T1 chain 1: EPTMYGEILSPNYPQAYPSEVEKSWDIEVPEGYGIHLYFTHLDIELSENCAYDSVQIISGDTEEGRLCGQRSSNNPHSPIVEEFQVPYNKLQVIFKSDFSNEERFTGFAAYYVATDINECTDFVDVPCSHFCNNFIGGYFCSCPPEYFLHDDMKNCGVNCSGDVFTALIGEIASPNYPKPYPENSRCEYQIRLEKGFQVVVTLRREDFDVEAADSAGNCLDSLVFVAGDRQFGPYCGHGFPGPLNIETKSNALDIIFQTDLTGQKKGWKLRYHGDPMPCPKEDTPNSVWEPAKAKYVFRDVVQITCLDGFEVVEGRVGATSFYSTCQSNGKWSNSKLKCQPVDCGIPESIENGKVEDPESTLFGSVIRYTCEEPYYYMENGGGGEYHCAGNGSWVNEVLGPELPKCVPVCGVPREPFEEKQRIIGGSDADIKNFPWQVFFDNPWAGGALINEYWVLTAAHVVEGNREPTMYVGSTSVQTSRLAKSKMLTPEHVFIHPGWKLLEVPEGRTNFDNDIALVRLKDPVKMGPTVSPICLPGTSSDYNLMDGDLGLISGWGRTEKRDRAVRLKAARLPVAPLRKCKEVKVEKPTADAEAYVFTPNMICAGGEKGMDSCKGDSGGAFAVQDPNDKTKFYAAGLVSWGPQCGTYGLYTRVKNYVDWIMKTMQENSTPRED
T1 chain 2: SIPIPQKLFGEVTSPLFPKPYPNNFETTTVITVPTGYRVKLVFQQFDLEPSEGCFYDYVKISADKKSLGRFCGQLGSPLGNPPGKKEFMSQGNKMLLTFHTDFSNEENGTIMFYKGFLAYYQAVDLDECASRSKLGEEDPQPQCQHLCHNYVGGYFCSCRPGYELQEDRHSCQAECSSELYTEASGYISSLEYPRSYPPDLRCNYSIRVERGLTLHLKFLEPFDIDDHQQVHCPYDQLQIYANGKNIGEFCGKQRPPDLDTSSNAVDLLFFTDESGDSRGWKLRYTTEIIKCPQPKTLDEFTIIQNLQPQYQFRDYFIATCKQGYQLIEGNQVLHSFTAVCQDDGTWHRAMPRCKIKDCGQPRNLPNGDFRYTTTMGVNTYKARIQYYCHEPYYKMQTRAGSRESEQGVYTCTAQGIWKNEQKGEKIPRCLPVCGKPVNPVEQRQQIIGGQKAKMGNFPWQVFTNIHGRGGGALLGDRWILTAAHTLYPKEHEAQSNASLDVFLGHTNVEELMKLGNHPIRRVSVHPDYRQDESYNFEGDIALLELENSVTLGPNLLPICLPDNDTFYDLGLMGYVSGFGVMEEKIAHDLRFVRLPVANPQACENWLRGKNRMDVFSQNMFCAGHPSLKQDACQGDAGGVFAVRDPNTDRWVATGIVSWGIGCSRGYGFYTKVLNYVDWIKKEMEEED
Protocol: (§1) The kinetic parameters of anti-C1s antibodies against recombinant human C1s (as described in PCT/JP2018/042054), human C1r2s2, and cyno C1r2s2 His/Flag (also referred as cyno C1r2s2 in the Table and Figures) were assessed at pH7.4 and pH5.8, at 37 degrees C. using BIACORE (registered trademark) T200 instrument (GE Healthcare) or BIACORE 4000 (GE Healthcare). ProAG (Pierce) was immobilized onto a CM4 sensorchip using amine coupling kit (GE Healthcare) according to the recommended settings by GE Healthcare. Antibodies and analytes were diluted into the respective running buffers, ACES pH7.4 and pH5.8 (20 mM ACES, 150 mM NaCl, 1.2 mM CaCl₂, 1 mg/ml BSA, 1 mg/ml CMD, 0.05% Tween 20, 0.005 w/v % NaN₃). Each antibody was captured onto the sensor surface by ProA/G. Antibody capture levels were typically 100-200 resonance units (RU). Then, recombinant C1s was injected at concentrations of 25 and 50 nM followed by dissociation at pH7.4 and pH5.8. The surface was regenerated using 10 mM Glycine-HCl, pH1.5. Kinetic parameters at neutral pH conditions and acidic conditions were determined by fitting the sensorgrams with 1:1 binding model using BIACORE (registered trademark) T200 Evaluation software, version 2.0 (GE Healthcare) or BIACORE 4000 Evaluation software. The dissociation rate at pH5.8 (after dissociation at pH7.4, indicated as pH5.8* in TABLE 2) was determined by processing and fitting data using Scrubber 2.0 (BioLogic Software) curve fitting software. The association rate (ka), dissociation rate (kd), binding affinity (KD) at pH7.4 and pH5.8 condition, and dissociation rate (kd) at pH5.8* condition of the antibodies are listed in TABLE 2. Some kinetic parameters of COS0098pHv1 in acidic condition were not correctly calculated because of its weak binding response.
(§2) Also, to observe the cross-reactivity of anti-C1s antibodies against human C1r2s2 and cyno C1r2s2 (cyno C1r2s2 His/Flag), BIACORE (registered trademark) kinetics analysis was performed.

[2] = biological target: T1, recombinant human C1r2s2 tetramer; test: SPR (Biacore), antibody captured on ProA/G, antigen as analyte, 37 C, pH7.4, 1.2 mM CaCl2; pH 7.4
Protocol: as §1, §2

- Kd [1]: 1.2 nM
- koff [1]: 0.00103 s⁻¹
- kon [1]: 858000 M⁻¹ s⁻¹
- Kd [2]: 0.213 nM
- koff [2]: 0.0002 s⁻¹
- kon [2]: 936000 M⁻¹ s⁻¹
B1: COS0098bb (antibody, V domains shown)
VH: QSVEESGGRLVTPGTPLTLTCTVSGFSLTKYTVSWVRQAPGKGLEWIGIINTGGSAYYATWAKGRFTFSKTSTTVDLQITSPTTEDTATYFCARGNGDTDYTNLWGPGTLVTVSS
VL: QVLTQTPSSVSEPVGGTVTINCQASENIYSALAWYQQKPGQPPKLLIYGASNLESGVPSRFKGSGSGTQFTLTISDLECADAATYYCQQYYFTSSTFGGGTKVEIK
notes: Anti-C1s rabbit antibody, parent of COS0098pHv1; the antibody was captured by ProA/G; also called anti-C1s antibody COS0098bb
